Results taken from article PMC8054193.

Biological target: Strep-SUMO-Bos1

Ssa1, sequence (P10591 whole entry): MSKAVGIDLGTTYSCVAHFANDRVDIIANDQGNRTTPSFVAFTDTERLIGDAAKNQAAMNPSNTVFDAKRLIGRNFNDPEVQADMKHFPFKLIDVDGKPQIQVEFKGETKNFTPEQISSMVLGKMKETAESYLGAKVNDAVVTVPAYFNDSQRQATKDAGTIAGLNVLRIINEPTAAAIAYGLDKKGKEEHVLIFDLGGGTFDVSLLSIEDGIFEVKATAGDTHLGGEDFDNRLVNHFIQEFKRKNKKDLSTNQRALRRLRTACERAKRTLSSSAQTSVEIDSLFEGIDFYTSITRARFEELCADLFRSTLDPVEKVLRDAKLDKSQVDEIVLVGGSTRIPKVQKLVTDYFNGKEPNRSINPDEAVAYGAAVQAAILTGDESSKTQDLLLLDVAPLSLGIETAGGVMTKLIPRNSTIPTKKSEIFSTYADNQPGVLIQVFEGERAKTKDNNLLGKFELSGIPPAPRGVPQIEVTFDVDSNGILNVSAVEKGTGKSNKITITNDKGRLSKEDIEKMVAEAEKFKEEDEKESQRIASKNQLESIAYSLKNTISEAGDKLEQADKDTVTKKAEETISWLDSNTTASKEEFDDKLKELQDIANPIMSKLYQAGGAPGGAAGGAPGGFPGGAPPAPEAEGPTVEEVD

- K (Soluble) from the Ssa1 concentration dependence of soluble Bos1 (sedimentation of 3 μM Bos1, Western blot, fit to Equation 2), Ssa1 alone: 0.73 µM
- K (Soluble) from the Ssa1 concentration dependence of soluble Bos1 (sedimentation of 3 μM Bos1, Western blot, fit to Equation 2), equimolar Ssa1 and Ydj1: 0.014 µM
Substance: Ssa1 (from UniProt P10591 1-642) (natural protein)
